Experimental data from the DeepSol protein solubility set.

test: soluble on expression in E. coli; label from the status in PepcDB or PDB records

Sequence	soluble on expression in E. coli
MDEDVGLEATNYSRGDESRSEEQEKNVVRWRIVQQSTGPNPKPRHGHRAVVLKELIVIFGGGNEGMIDELHAYNTQKREWTAPQCCGDVPTPAAAFGAISLGNKIYRFGGMTEYGKYTNDLYELQSTRWEWRRLNPRVHSNGHLPCPRIGHSFVVSQKSQKAYVFGGLSNDLNDPKRNVPHYLDDLYVINLSGPQHLIWEKLNATGPGPISRESHTAVIYEKDSISRMVVYGGMNGVRLGDLWYLNLNTLHWTEIKFDDPRTGIPPMPRSLHSSVLIGDKMFVYGGWVPLLEHASTEQQTEKEWKCTSSLGCWNITEDRWVPLHLYCSDEDTIPRGRAGHCAAAVGDRMYIWSGRDGYRKAWSNQVCCRDMWLLDTILPEQPGKVQLGRAGFNSLEISWPIVQGASGYFLQIGFGDAKEQSVSPIKRATTSPRKQPSIVPPSQKETEQSPKKPQGTAPSIISTQGTTYTAPADPKPATDEGGLPQDLFEDTEKNETASPKRSNDAQSADSSTCEQKKTDESGLEEDSEKDQKPSDAGETDEMKEENGDDDLPWFDVGIIDKATINVTHYFNDRQQSLEKQLNDLIDHNAFKCVNDSVFTTEDKIPLINGQSYRFRVSAINGLGKGAWSETASCKTCVPGYPSAPSSIRITKSHEGAQLTWEPPSNTNISGKIIEYSVYLAVKNQSANSADSQLAFMRVYCGPQADCQVLQSNLGTAFVDQTNKPAIIFRIAARNEKGYGPATQVRWLQDQQKIPVRTNYPNNSGFIYQQHGGQQKRARFDHQ	not soluble
MKDVAKLLKILPPTFNETVLLPVQTQLKEHYPRTVSLVKNLVSPLPEEYRFLTEVLLSVLLSGEISETIPYQALLVAHGESTATSIQAVANKLCGTYIFDAINMPLTSSVRDIVAEVKEWLSQRDTSQGVIMLVDMGSLTQLYKSLKPQILGELLVINNLTTAYALEIGHQLMNEQLFYGIAKTAEKKFKTDVQYFEGFSVEKNIIVSSISGLDIAKQIKQICQKYLYTDIKVITLKYKDLVNTLDIANAEENYLKETSLILTTSYLDNHTNVASVNLLDMLDEDAGTQLMEPFQNLMHPNNIDSMINEFVHFFSKEGLSEKLEFLNPDVIIKQVENVTKNIEKRFDLTLSGKMKFNLMMHNALMVERTMLGVEDYEIPANLEELTINQKPFFQNAKNIFYTLEQFYRIEISNWELYVIYEILSSR	not soluble
MSLTFIRKVETWITNSKQTEDGWSQIKPFIFLKLTNSDGFEGWGEAFSLPAREKGIVEIIHNLMSSLSYVKDITPDRFYTESNLIADGHRGIDFSAATSAIEMSLWDIEGKKEKKPLYKILSKDYREKVPVYATIWSEDFKNDENLSSRCIEILSDGYGGIKIYPLQNRTVEQAAKCVSKIRDVLGYKIPLMLDLACPKDTNISLKLASLVEEFRPYWFEEPVDGEATRALKDIREKTSLRIVSGEKQCGLNHFIETLALDAVDIFNPDISGVGGIIDMIKIIKLSHEKKVTVSPHCWNSMSIAASAMVHVCMSFTNTEMAEFFPEYIPYSLKFSNQNYEIKDGFVKIEDNEGLGINIDTKLLMEDTSSYRETELTEGHHHHHH	soluble
DDIHLIATSDVLYFKAEEKYVSVYAQQGKGEVQEYLIRTSLKELIGQLNPEQFWQVHRSSVVQVSKISKVNKDFAGRMFVYVGETKLPVSRASQSLFKGM	not soluble
MYRLERTQRLPISIDEAWDFFASPDNLKKITPAYMGFDIKSGGGIPMYAGMIIKYTVRPLLGIPMTWVTEITHVEPQRFFVDEQRVGPYAIWHHQHHFKAIENGVEMTDILHYKLPFGILGNLAHPFLVKNKLEEIFNFRNKKMVELFGTYKLEHHHHHH	soluble
MGSDKIHHHHHHMIFSNLKLNDNEPIYIQLKNYISDMISKGLIPDNSKLPSTRELSQLLQVSRNSVVLTYEELKSEGLIYSISGKGTFVKSKNKSSNTTWSLNWDCLENTYSKKANELDIIKSEIPWSSDLISFKSISPDGDLFDMEELKKSFLNRISLEGHKLLNYGYAQGYKPLIDYLLEYMTNKGADISNKDILITNGFTEGFDIIMSSFTQEKDYIICENPTHNTAIKIMKSHNLNILGVDINEDGLDFNMLEDNLIKYKNKIKFAYITPSYHNPTGIVMTPENRYKFYNLMKKYNIAIIEDGFNEELLYNSSHIFPICSLDNMNNGVVYIGSFSKILFPGMRIGWIFADKKVINKLESVKRCRNIHVSFLDQGILFDYLSNGGFEKYIKKIRKFYGDKFNFAYKCIKKYIKTEYILGDGGLHIFIKLKNIDTRVLLEKCYEKNVIFMPGDLFFTDNSGFDTLRLGFSRLSFEDIEIGIKIIGETINEMF	not soluble
